Results published in the supplement of paper PMC10724198.
± gives the standard deviation of the averaged measurements.

Test system: Saccharomyces cerevisiae
Assay: protein stability index of tFT-peptide fusion (C-terminal peptide) (PSI (0-1 scale)); higher = more stable (slower turnover)
Details: genetic background: wild type; temperature: 30 C
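Further: PSI is a weighted mean of sequencing reads over stability bins, variants kept only with over 10 reads, mCherry proximal and sfGFP distal, peptide attached via GGGS linker.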

Row | Sequence | protein stability index
1 | SGNDIQSLNIVI | 0.754 ± 0.081
2 | GCTNSCGRHVKG | 0.6426 ± 0.006
3 | LFCGALSTRLAR | 0.751 ± 0.081
4 | CSKRTGRKSVTY | 0.7299 ± 0.0063
5 | FSPPPLPAASPS | 0.664 ± 0.071
6 | AELALGIESYLP | 0.683 ± 0.083
7 | FLQSRGWVCNHL | 0.655 ± 0.038
8 | PAPPPPFPPSPP | 0.695 ± 0.039
9 | VVVLGVGGVGWW | 0.704 ± 0.019
10 | PSKLNLSRKPEC | 0.677 ± 0.018
11 | IGLPCSSGCCCH | 0.702 ± 0.088
12 | ASLLGLLIHLGR | 0.6951 ± 0.0059
13 | KKKKQIKKTKKK | 0.701 ± 0.047
14 | IWGKREDKNVYR | 0.71 ± 0.025
15 | YDIAVDAEIDPY | 0.685 ± 0.0081
16 | LTGCFRSSRRCC | 0.665 ± 0.02
17 | PRLSPLPPPSFP | 0.628 ± 0.045
18 | GRFKLCWWCCGV | 0.724 ± 0.035
19 | SPPTPRIPPPLP | 0.663 ± 0.035
20 | PYAHTKGSLGML | 0.6352 ± 0.0013
21 | NKEIKKIRIKKE | 0.664 ± 0.076
22 | ELGARGGRGGGR | 0.739 ± 0.038
23 | LILFQYFYLPMT | 0.517 ± 0.044
24 | ASVSVWLVFSGG | 0.594 ± 0.0075
25 | FRDPTVLCCLHI | 0.515 ± 0.055
26 | ARPCPRPHVPST | 0.706 ± 0.043

Row | Sequence | protein stability index
27 | THPPSFHPSRAP | 0.693 ± 0.092
28 | SRRCKAFLCRGY | 0.6663 ± 0.0053
29 | YPPYPSHSSLHT | 0.6987 ± 0.0062
30 | LPPTHPPPPPAL | 0.7 ± 0.045
31 | SYRHHPTVPSTY | 0.705 ± 0.057
32 | LVFGLGSVYLWG | 0.602 ± 0.059
33 | PSPLLPAPRRPP | 0.684 ± 0.085
34 | LSLCVVFRAPSR | 0.686 ± 0.042
35 | SGVLRLSGTGAV | 0.688 ± 0.0018
36 | ASFPPVHPALSP | 0.664 ± 0.035
37 | WCWVGRFVGLVR | 0.447 ± 0.11
38 | SDLKARYHCGRD | 0.652 ± 0.075
39 | GPFPMRRTFRFA | 0.667 ± 0.056
40 | SPRSPPSTSSPQ | 0.6802 ± 0.001
41 | VFLTLDVFPSSP | 0.647 ± 0.17
42 | DLRSQGWVALFH | 0.663 ± 0.04
43 | LRIILPPLAQPE | 0.639 ± 0.019
44 | GCLCAGSMVGDL | 0.666 ± 0.015
45 | FPSPPHALPTFP | 0.669 ± 0.071
46 | VRYGQRGTFGLL | 0.6901 ± 0.0019
47 | PLPPPGPLPSPP | 0.736 ± 0.043
48 | TNARDPPGPTPH | 0.586 ± 0.06
49 | PRLLSTYAGSKW | 0.723 ± 0.012
50 | YVTPALRPTSSR | 0.728 ± 0.031
51 | SLALSPQFLSFP | 0.749 ± 0.081
52 | VSGCVCAAADVL | 0.696 ± 0.027

Row | Sequence | protein stability index
53 | LSPPRSPPSRPP | 0.645 ± 0.029
54 | LVRCDSSSPLPP | 0.6863 ± 0.0042
55 | NELRTFLGDRDI | 0.675 ± 0.043
56 | YKSELSIPYAPV | 0.687 ± 0.015
57 | FSRRQLLCLPHP | 0.677 ± 0.0083
58 | GPSTPPPRAPGT | 0.7045 ± 0.0031
59 | PYPVRSRPPAPA | 0.6726 ± 0.0039
60 | DRDRVLLRGYRH | 0.57134 ± 0.00013
61 | PLPPPPPTSLPP | 0.705 ± 0.043
62 | SFFFLVPFSVFL | 0.586 ± 0.1
63 | RHMLSDFIDACS | 0.72 ± 0.12
64 | EIAGKGFRLGEW | 0.74 ± 0.052
65 | SCLWRGHDTVWL | 0.662 ± 0.098
66 | KKKQNVKSNEVG | 0.651 ± 0.096
67 | VLLMRSARTAGA | 0.69 ± 0.021
68 | CLWTSAQVPFQT | 0.703 ± 0.0081
69 | GGQRPKRQQLTT | 0.7022 ± 0.0058
70 | KKPVNINNKLSA | 0.647 ± 0.017
71 | RGLVLWVVSGRG | 0.6155 ± 0.0045
72 | KHQKNRLRDLGS | 0.708 ± 0.03
73 | HPPSLPSAPSLP | 0.694 ± 0.029
74 | RELLWFIFTGFC | 0.622 ± 0.042
75 | LSLALGSPGALP | 0.703 ± 0.07
76 | CLWCCFTDCCDT | 0.762 ± 0.011
77 | PSGSNPPRTIPT | 0.713 ± 0.017
78 | FRCFDAQRLGGV | 0.6858 ± 0.002

Row | Sequence | protein stability index
79 | ERVWRAALAPVV | 0.618 ± 0.045
80 | TFFLPPSCFYPP | 0.616 ± 0.051
81 | VPFGPLRPALYL | 0.708 ± 0.018
82 | CSSGGFSLFDEA | 0.7504 ± 0.0024
83 | RCTWEATYNLRY | 0.749 ± 0.092
84 | SPSPLSHSPLAF | 0.647 ± 0.009
85 | SRIPARCDGKCI | 0.6722 ± 0.0037
86 | ATQVGGPTHSHP | 0.7016 ± 0.0031
87 | PPPPYARHTALI | 0.691 ± 0.032
88 | FFFPSPPPPSLV | 0.749 ± 0.05
89 | HTWAFYSETVCL | 0.694 ± 0.0092
90 | SLSPPSPTPSHS | 0.7347 ± 0.0043
91 | APRTRPSPTLGT | 0.724 ± 0.029
92 | EVSGGNRYWCGV | 0.719 ± 0.022
93 | NQVNEELDKKGH | 0.719 ± 0.14
94 | SSRRNNIPKRYK | 0.713 ± 0.031
95 | SFFLMTPPPSLR | 0.698 ± 0.12
96 | IGVAARPWAGAQ | 0.706 ± 0.02
97 | SLLPPSPPPSRL | 0.724 ± 0.066
98 | GAPVGRRPGRDR | 0.703 ± 0.035
99 | GSVTIDSMIHMR | 0.667 ± 0.037
100 | PPHTALLPPAPA | 0.583 ± 0.019
101 | DTTTQPMSYEDP | 0.669 ± 0.22
102 | GLGGGRCFWGVG | 0.686 ± 0.061
103 | LTNLGSDRCRLQ | 0.623 ± 0.0074
104 | PQSPVCDLESRL | 0.666 ± 0.11

Row | Sequence | protein stability index
105 | VSIGGLLGCVLF | 0.692 ± 0.048
106 | LFVGSSPPPSPP | 0.643 ± 0.046
107 | VEWCARGRVRRA | 0.757 ± 0.045
108 | TRTTTQKNNATT | 0.717 ± 0.037
109 | FDRWEDCKGTRD | 0.71 ± 0.013
110 | SSAALSPPPPRP | 0.724 ± 0.027
111 | KRKKNKKRKQNE | 0.656 ± 0.026
112 | RQKAQESNTQPP | 0.73 ± 0.044
113 | YMGDFRPAFAVT | 0.64 ± 0.046
114 | CAIGTGTKVKPS | 0.684 ± 0.016
115 | VSSTFGQDTSKR | 0.715 ± 0.024
116 | RSSPPSPPLLSP | 0.611 ± 0.023
117 | CFPYFCGFLGPL | 0.697 ± 0.031
118 | SRAPPTSLVWGF | 0.678 ± 0.097
119 | ARNKKKDLREIK | 0.761 ± 0.054
120 | VFPRVFGFGVCI | 0.716 ± 0.054
121 | KALNLAAAILYG | 0.638 ± 0.015
122 | SRGPSLYLCGVR | 0.63 ± 0.00074
123 | GLGWPPGEARRV | 0.621 ± 0.047
124 | KKKKIKKKKINI | 0.597 ± 0.0067
125 | VIISDPNKDTRL | 0.645 ± 0.066
126 | RCVSLDVPPTGA | 0.688 ± 0.013
127 | RHPPPRSSPPDL | 0.639 ± 0.095
128 | QRSEHGAHPTEP | 0.701 ± 0.035
129 | YLPDPVVSLAHS | 0.656 ± 0.063
130 | LSLLLLPPFPHF | 0.758 ± 0.026

Row | Sequence | protein stability index
131 | VDSLETDVLKYL | 0.665 ± 0.011
132 | PLPLPPPSLSPL | 0.73279 ± 8.7e-05
133 | CHRSSPPPPPPT | 0.711 ± 0.046
134 | PGVRPPSLVPPL | 0.65 ± 0.11
135 | TLAKSSQNLMCV | 0.744 ± 0.085
136 | GVSAPGDAGAVP | 0.654 ± 0.015
137 | RDGRAGGDIGAT | 0.618 ± 0.11
138 | FGVVGAVGWRLR | 0.638 ± 0.03
139 | CCPVTLLLPFPL | 0.606 ± 0.01
140 | YGCSRALGCMGG | 0.596 ± 0.14
141 | WNGIDQSMSGRR | 0.694 ± 0.099
142 | HPPPTPPSPPPP | 0.667 ± 0.088
143 | KGQGAYEGVGKE | 0.663 ± 0.019
144 | GGSNEKARGTGR | 0.6544 ± 0.00083
145 | QKKRKKTNQKNL | 0.621 ± 0.041
146 | PPPLGPPPPSSL | 0.774 ± 0.072
147 | QHFIRGWAWPTV | 0.729 ± 0.034
148 | MVMEGLRTLSCQ | 0.6589 ± 0.0061
149 | NVWGTGGMCTFV | 0.7058 ± 0.0019
150 | PRHGSPASPRPP | 0.636 ± 0.086
151 | HWSVATNMLEQH | 0.74 ± 0.054
152 | LGVSYAPLPFLS | 0.65 ± 0.03
153 | PSRSATRPFPLS | 0.707 ± 0.071
154 | VSPSPIPSMPVI | 0.71 ± 0.078
155 | KKKKKKKKRNRK | 0.666 ± 0.018
156 | GAGGVWGGGQAG | 0.696 ± 0.041

Row | Sequence | protein stability index
157 | GFLSSSKSCRCH | 0.632 ± 0.059
158 | LIRIHPNGPKFM | 0.708 ± 0.083
159 | WWSFVGACDGVG | 0.549 ± 0.012
160 | PPSQRPPPPPPL | 0.704 ± 0.023
161 | LPQVKLGRIYTY | 0.683 ± 0.032
162 | PGPWLGLTPCRT | 0.813 ± 0.14
163 | RPGYDRNRTGMI | 0.738 ± 0.073
164 | EGGERGSKIVDT | 0.593 ± 0.029
165 | VASGTLGWWVSA | 0.712 ± 0.018
166 | FCRCNYLYRIPK | 0.6615 ± 0.0026
167 | RGSSPRAVTVWM | 0.804 ± 0.075
168 | SFGLSYYFRNSL | 0.731 ± 0.066
169 | PPPPPSAPAPLH | 0.6963 ± 0.0021
170 | RSGRCWSFPFSV | 0.703 ± 0.026
171 | GGAEEGRANCWN | 0.722 ± 0.1
172 | PLSGFSSPSFFP | 0.693 ± 0.025
173 | VALPVGQKLRTR | 0.633 ± 0.029
174 | EEKASKSSRLKK | 0.699 ± 0.036
175 | DCRATNTTWGLS | 0.697 ± 0.18
176 | GTGGIFAVAPTL | 0.737 ± 0.044
177 | WLRPRSFSVVAT | 0.52821 ± 0.00016
178 | WGRGLESVKGGG | 0.727 ± 0.018
179 | PPPPPLHPPPPL | 0.605 ± 0.056
180 | KGLKQLMQIRME | 0.605 ± 0.064
181 | NEQPSKLLAKEC | 0.866 ± 0.13
182 | RLNRSRAVTFRI | 0.663 ± 0.019

Row | Sequence | protein stability index
183 | WDHGDHTAMVSI | 0.683 ± 0.019
184 | GGCGSAGRGQRG | 0.697 ± 0.062
185 | LCRSSIILTLLL | 0.586 ± 0.057
186 | RFGRGAVGGLGG | 0.668 ± 0.02
187 | GLTCKSTASCKV | 0.693 ± 0.01
188 | SHSRRRTPSVTP | 0.713 ± 0.083
189 | HGWACSRSPCAV | 0.756 ± 0.048
190 | PPLGPARNYPSL | 0.673 ± 0.018
191 | PPPPRPPRPPPA | 0.671 ± 0.12
192 | QWAAVCAVVGGG | 0.684 ± 0.055
193 | SVVVWRWVCGWS | 0.549 ± 0.014
194 | MPKVIIGMSVTK | 0.687 ± 0.015
195 | GRWRRWSSEGLG | 0.684 ± 0.026
196 | ASVLGGLFRDRV | 0.773 ± 0.057
197 | KKQQKKKNKNDR | 0.651 ± 0.017
198 | PHLESVRYGLFS | 0.709 ± 0.02
199 | SPHTPDPTTTPH | 0.648 ± 0.097
200 | VGVSFSFGSIFL | 0.687 ± 0.022
201 | FLVPTYISPFSF | 0.65 ± 0.027
202 | VLICGLNYLSLC | 0.64 ± 0.022
